Reference: US10618965 (dated 2020)
Residue numbers refer to the chain shown, from its start.

T1: human FcgRIIa(R) (human)
T1 chain: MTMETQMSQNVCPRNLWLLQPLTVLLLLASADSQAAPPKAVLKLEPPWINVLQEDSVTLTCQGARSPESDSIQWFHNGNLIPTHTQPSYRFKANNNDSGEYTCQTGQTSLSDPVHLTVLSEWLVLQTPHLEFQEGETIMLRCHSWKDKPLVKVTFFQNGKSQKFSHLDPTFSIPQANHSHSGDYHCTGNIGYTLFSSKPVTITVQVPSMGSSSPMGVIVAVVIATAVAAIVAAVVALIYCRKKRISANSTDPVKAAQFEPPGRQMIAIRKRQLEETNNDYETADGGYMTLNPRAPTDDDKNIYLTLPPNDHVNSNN

T2: human FcgRIIb (human)
T2 chain: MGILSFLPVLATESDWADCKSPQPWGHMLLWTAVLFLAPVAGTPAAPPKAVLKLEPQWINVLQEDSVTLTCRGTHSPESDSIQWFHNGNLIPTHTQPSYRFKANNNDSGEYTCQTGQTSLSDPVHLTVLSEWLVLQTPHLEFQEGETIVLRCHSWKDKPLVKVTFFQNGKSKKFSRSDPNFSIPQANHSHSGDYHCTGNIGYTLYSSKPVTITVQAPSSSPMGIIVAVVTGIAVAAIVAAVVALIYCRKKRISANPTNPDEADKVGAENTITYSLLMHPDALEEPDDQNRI

B1: F1009 (antibody)
chain 1: QVQLQESGPGLVKPSETLSLTCAVSGHSISHDHAWSWVRQPPGEGLEWIGFISYSGITNYNPSLQGRVTISRDNSKNTLYLQMNSLRAEDTAVYYCARSLARTTAMDYWGEGTLVTVSSASTKGPSVFPLAPSSKSTSGGTAALGCLVKDYFPEPVTVSWNSGALTSGVHTFPAVLQSSGLYSLSSVVTVPSSSLGTQTYICNVNHKPSNTKVDKKVEPKSCDKTHTCPPCPAPELRGGPKVFLFPPKPKDVLYISRTPEVTCVVVDVSHEDPEVKFNWYVDGVEVHNAKTKPREEQYNSTYRVVSVLQPLHADWLNGKEYKCKVSNKALPAPIEKTISKAKGQPREPQVYTLPPSRDELTKNQVSLTCLVKGFYPSDIAVEWESNGQPENNYKTTPPVLDSDGSFFLYSKLTVDKSRWQQGNVFSCSVMHEALHYHVTQKSLSLSP
chain 2: not shown
B2: F821 (antibody)
chain 1: B1 chain 1 with V252T, Q309T, P310V, A313Q, V438Y
chain 2: not shown
B3: F939 (antibody)
chain 1: B1 chain 1 with V252T, Q309T, P310V, A313Q
chain 2: not shown
B4: IL6R-BF648 (antibody)
chain 1: not shown
chain 2: DIQMTQSPSSLSASVGDRVTITCRASQDISSYLNWYQQKPGKAPKLLIYYTSRLHSGVPSRFSGSGSGTDFTFTISSLQPEDIATYYCQQGNTLPYTFGQGTKVEIK
B5: F38 (antibody)
chain 1: B1 chain 1 with R237L, K241S, V252T, S256T, Q309T, P310V, A313Q, Y436W, V438Y
chain 2: not shown
B6: F39 (antibody)
chain 1: B1 chain 1 with R237L, K241S, V252T, S256T, Q309T, P310V, A313Q, V438Y
chain 2: not shown
B7: IL6R-PD081 (antibody)
chain 1: B1 chain 1 with R237L, G239E, P240D, K241S, V252T, Q309T, P310V, A313Q, V438Y
chain 2: B4 chain 2
B8: IL6R-PD080 (antibody)
chain 1: B1 chain 1 with R237L, G239A, P240D, K241S, V252T, Q309T, P310V, A313Q, V438Y
chain 2: B4 chain 2
B9: IL6R-PD087 (antibody)
chain 1: B1 chain 1 with R237L, G239M, P240D, K241S, V252T, Q309T, P310V, A313Q, V438Y
chain 2: B4 chain 2
B10: IL6R-PD095 (antibody)
chain 1: B1 chain 1 with R237L, G239Y, P240D, K241S, V252T, Q309T, P310V, A313Q, V438Y
chain 2: B4 chain 2
B11: IL6R-PD079 (antibody)
chain 1: B1 chain 1 with R237L, G239A, P240D, K241S, V252T, Q309T, P310V, A313Q, V438Y
chain 2: B4 chain 2
B12: IL6R-PD097 (antibody)
chain 1: B1 chain 1 with R237L, P240D, K241D, V252T, Q309T, P310V, A313Q, V438Y
chain 2: B4 chain 2
B13: IL6R-PD042 (antibody)
chain 1: B1 chain 1 with L236W, R237L, P240D, K241S, V252T, Q309T, P310V, A313Q, V438Y
chain 2: B4 chain 2
B14: IL6R-PD043 (antibody)
chain 1: B1 chain 1 with L236Y, R237L, P240D, K241S, V252T, Q309T, P310V, A313Q, V438Y
chain 2: B4 chain 2
B15: IL6R-PD086 (antibody)
chain 1: B1 chain 1 with R237L, G239L, P240D, K241S, V252T, Q309T, P310V, A313Q, V438Y
chain 2: B4 chain 2
B16: IL6R-PD082 (antibody)
chain 1: B1 chain 1 with R237L, G239F, P240D, K241S, V252T, Q309T, P310V, A313Q, V438Y
chain 2: B4 chain 2
B17: IL6R-PD094 (antibody)
chain 1: B1 chain 1 with R237L, G239W, P240D, K241S, V252T, Q309T, P310V, A313Q, V438Y
chain 2: B4 chain 2
B18: IgG1-F157 (antibody)
chain 1: B1 chain 1 with R237L, K241S, V252T, Y254M, P259A, Q309T, A313Q, M430L, V438Y
chain 2: not shown
B19: IgG1-F424 (antibody)
chain 1: B1 chain 1 with R237L, V252T, Y254M, P259A, Q309T, A313Q, M430L, V438Y
chain 2: not shown
B20: IgG1-v1 (antibody)
chain 1: not shown
chain 2: B4 chain 2
B21: IgG1-v3 (antibody)
chain 1: not shown
chain 2: B4 chain 2
B22: IgG1-v5 (antibody)
chain 1: QVQLQESGPGLVKPSETLSLTCAVSGHSISHDHAWSWVRQPPGEGLEWIGFISYSGITNYNPSLQGRVTISRDNSKNTLYLQMNSLRAEDTAVYYCARSLARTTAMDYWGEGTLVTVSSASTKGPSVFPLAPSSKSTSGGTAALGCLVKDYFPEPVTVSWNSGALTSGVHTFPAVLQSSGLYSLSSVVTVPSSSLGTQTYICNVNHKPSNTKVDKKVEPKSCDKTHTCPPCPAPELLGGDSVFLFPPKPKDTLMISRTPEVTCVVVDVEHEDPEVKFNWYVDGVEVHNAKTKPREEQYNSTYRVVSVLTVLHQDWLNGKEYKCKVSNKAFPAPIEKTISKAKGQPREPQVYTLPPSRDELTKNQVSLTCLVKGFYPSDIAVEWESNGQPENNYKTTPPVLDSDGSFFLYSKLTVDKSRWQQGNVFSCSVMHEALHNHYTQKSLSLSP
chain 2: B4 chain 2
B23: IgG1-v4 (antibody)
chain 1: not shown
chain 2: B4 chain 2
B24: IgG1-v2 (antibody)
chain 1: not shown
chain 2: B4 chain 2

molecular target: human FcRn (with beta2-microglobulin) (human); assay: SPR, pH 7.0

Kd | Binder
12 nM | B1
310 nM | B2
150 nM | B3

Molecular target: T1, human FcgRIIa(R)
Assay: SPR

Kd | Binder
15000 nM | B4

molecular target: human FcRn (with beta2-microglobulin) (human); assay: SPR, neutral pH

Kd | Binder
100 nM | B5
300 nM | B6

molecular target: human FcgRIa (human); assay: SPR
Sequence (chain, as listed by the source): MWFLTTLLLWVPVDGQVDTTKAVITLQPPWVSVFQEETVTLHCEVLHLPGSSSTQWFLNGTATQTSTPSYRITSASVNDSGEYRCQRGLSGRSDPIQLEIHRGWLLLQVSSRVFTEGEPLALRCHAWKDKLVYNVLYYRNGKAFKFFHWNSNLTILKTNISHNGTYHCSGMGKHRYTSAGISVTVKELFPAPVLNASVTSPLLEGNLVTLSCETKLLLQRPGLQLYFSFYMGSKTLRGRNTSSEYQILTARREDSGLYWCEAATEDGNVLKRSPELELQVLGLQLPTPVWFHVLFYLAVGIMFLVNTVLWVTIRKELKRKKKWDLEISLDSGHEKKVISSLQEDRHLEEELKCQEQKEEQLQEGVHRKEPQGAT

Kd | Binder
11 nM | B4

molecular target: human FcgRIa (human); assay: SPR; remark: another data set of the same source

Kd | Binder
340 nM | B7
140 nM | B8
52 nM | B9
93 nM | B10
140 nM | B11
4.9 nM | B12
63 nM | B13
75 nM | B14
120 nM | B15
52 nM | B16
36 nM | B17

Molecular target: T2, human FcgRIIb
Assay: SPR

Kd | Binder
1200 nM | B4

Molecular target: T1, human FcgRIIa(R)
Assay: SPR
Remark: another data set of the same source

Kd | Binder
38000 nM | B7
21000 nM | B8
22000 nM | B9
7900 nM | B10
32000 nM | B11
3500 nM | B12
16000 nM | B13
26000 nM | B14
18000 nM | B15
14000 nM | B16
7200 nM | B17

molecular target: human FcRn (with beta2-microglobulin) (human); assay: SPR, pH 7.0; remark: another data set of the same source

Kd | Binder
150 nM | B18
94 nM | B19

molecular target: human FcgRIIIa(V) (human); assay: SPR
Sequence (chain, as listed by the source): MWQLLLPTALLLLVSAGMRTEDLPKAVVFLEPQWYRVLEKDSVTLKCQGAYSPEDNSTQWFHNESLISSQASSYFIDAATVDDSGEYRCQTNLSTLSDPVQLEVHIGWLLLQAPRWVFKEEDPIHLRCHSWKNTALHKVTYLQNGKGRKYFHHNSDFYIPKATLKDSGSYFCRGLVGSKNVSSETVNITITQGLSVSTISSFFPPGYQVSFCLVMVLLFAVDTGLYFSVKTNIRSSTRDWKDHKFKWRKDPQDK

Kd | Binder
37000 nM | B9
37000 nM | B11
41000 nM | B15
43000 nM | B16

Molecular target: T1, human FcgRIIa(R)
Assay: SPR
Remark: another data set of the same source

Kd | Binder
15000 nM | B4

molecular target: human FcRn (with beta2-microglobulin) (human); assay: SPR, pH 7.0; remark: another data set of the same source

Kd | Binder
12 nM | B1
153 nM | B3

molecular target: human FcgRIa (human); assay: SPR; remark: another data set of the same source

Kd | Binder
11 nM | B4

Molecular target: T2, human FcgRIIb
Assay: SPR
Remark: another data set of the same source

Kd | Binder
1100 nM | B20
13 nM | B21
450 nM | B22

Molecular target: T2, human FcgRIIb
Assay: SPR
Remark: another data set of the same source

Kd | Binder
3600 nM | B7
2000 nM | B8
2900 nM | B9
2300 nM | B10
3000 nM | B11
1400 nM | B12
2000 nM | B13
1600 nM | B14
2600 nM | B15
3400 nM | B16
2300 nM | B17

Molecular target: T2, human FcgRIIb
Assay: SPR
Remark: another data set of the same source

Kd | Binder
1200 nM | B4

Molecular target: T2, human FcgRIIb
Assay: SPR
Remark: another data set of the same source

Kd | Binder
1100 nM | B20
11000 nM | B23
2300 nM | B24
